Test results published in patent US20160136234A1.

Key:
Assay in all cases: cell-based or functional assay
[1] = biological target: T1, PKD2 (h) (human) (UniProt Q9BZL6)
T1 sequence (looked up): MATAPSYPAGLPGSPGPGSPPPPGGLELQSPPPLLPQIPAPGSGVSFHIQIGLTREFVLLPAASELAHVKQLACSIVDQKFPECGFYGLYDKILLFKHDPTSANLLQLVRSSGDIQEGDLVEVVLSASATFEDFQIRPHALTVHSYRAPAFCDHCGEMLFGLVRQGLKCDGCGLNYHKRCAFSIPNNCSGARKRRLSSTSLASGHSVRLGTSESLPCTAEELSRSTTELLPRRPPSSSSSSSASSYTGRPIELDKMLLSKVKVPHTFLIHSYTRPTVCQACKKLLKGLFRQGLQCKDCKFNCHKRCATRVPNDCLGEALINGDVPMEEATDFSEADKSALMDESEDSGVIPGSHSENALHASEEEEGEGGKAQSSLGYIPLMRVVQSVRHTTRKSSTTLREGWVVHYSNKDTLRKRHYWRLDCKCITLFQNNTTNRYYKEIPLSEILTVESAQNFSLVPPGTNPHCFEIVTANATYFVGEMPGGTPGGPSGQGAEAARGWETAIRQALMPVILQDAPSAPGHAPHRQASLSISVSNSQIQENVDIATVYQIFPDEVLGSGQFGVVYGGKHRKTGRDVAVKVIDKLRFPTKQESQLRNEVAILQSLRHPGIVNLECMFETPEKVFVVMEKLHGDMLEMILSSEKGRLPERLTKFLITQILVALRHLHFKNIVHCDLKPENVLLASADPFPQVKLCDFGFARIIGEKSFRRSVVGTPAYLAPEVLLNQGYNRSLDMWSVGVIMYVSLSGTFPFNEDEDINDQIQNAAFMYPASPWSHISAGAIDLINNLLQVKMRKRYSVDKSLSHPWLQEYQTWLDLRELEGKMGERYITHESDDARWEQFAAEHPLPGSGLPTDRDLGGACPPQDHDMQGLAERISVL

[2] = biological target: SRPK1 (h) (human) (UniProt Q96SB4)
[3] = biological target: Rsk4 (h) (human) (UniProt Q9UK32)
Sequence of Rsk4 (h) (human) (Q9UK32 whole entry): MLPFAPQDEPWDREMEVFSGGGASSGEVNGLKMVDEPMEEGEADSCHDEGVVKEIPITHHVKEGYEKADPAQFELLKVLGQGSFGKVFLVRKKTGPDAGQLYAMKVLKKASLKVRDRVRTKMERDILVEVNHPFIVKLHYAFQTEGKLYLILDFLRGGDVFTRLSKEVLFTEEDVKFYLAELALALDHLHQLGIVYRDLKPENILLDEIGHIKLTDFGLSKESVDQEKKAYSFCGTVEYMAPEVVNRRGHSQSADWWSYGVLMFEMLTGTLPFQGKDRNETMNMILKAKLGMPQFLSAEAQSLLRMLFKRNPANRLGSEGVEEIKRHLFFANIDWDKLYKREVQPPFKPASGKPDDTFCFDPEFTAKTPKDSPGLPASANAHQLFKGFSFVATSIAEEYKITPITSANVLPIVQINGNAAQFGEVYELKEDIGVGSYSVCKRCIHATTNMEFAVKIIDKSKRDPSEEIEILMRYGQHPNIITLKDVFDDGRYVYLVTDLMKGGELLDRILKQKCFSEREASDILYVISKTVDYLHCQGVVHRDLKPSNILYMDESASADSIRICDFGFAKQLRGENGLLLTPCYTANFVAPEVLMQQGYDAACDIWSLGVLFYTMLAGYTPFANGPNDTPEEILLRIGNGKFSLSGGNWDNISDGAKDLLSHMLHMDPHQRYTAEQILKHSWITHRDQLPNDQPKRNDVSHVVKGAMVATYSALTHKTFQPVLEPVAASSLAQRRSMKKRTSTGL

[4] = biological target: MSSK1 (h) (human) (UniProt Q9UPE1)
[5] = biological target: ZIPK (h) (human) (UniProt O43293)
[6] = biological target: mTOR (h) (human) (UniProt P42345)
Sequence of mTOR (h) (human) (P42345 1362-2549 limits assumed): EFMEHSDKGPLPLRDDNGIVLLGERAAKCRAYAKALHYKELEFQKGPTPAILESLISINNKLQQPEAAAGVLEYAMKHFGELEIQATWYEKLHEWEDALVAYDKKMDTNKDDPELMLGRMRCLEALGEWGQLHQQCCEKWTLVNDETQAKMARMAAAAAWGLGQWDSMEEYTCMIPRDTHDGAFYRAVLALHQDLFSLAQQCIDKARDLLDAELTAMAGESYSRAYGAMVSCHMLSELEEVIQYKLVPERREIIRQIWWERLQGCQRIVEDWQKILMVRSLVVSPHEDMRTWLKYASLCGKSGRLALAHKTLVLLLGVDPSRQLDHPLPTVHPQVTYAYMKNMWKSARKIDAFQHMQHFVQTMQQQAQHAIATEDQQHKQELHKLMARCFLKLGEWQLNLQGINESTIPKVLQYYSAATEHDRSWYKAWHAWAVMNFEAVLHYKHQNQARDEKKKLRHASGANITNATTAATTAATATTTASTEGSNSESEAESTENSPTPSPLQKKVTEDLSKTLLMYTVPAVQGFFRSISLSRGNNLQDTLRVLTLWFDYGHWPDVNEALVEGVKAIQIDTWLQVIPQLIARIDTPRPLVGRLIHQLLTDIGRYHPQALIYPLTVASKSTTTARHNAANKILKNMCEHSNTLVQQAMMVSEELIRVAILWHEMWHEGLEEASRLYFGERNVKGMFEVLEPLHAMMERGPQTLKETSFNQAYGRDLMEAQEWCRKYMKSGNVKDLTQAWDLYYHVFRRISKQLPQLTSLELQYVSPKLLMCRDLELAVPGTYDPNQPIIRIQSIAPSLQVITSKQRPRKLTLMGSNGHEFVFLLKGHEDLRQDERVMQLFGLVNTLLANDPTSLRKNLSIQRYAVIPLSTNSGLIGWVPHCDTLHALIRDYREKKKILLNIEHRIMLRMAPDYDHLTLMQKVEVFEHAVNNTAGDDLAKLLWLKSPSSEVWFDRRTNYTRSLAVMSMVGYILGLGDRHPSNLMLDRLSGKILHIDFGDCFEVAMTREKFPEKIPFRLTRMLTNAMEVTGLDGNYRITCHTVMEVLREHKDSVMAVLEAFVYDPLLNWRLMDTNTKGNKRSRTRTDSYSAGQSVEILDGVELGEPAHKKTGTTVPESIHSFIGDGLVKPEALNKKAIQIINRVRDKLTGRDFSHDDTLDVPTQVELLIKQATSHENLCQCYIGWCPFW

[7] = biological target: GRK6 (h) (human) (UniProt P43250)
[8] = biological target: T2, GRK7 (h) (human) (UniProt Q8WTQ7)
T2 sequence (looked up): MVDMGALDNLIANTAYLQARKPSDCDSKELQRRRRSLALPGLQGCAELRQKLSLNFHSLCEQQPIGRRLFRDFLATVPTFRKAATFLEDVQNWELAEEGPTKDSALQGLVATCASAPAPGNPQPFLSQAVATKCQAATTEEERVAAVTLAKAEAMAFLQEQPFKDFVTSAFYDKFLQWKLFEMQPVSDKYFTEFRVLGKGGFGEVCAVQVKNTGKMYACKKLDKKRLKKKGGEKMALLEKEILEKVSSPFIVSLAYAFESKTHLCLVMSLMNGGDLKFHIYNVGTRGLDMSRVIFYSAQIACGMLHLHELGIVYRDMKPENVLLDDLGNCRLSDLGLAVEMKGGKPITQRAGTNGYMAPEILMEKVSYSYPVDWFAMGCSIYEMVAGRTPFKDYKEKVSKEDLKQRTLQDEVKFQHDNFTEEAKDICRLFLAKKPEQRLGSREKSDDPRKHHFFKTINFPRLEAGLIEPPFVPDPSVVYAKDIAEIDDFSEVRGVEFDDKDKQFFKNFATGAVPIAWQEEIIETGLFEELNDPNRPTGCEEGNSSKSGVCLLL

[9] = biological target: KDR (h) (human) (UniProt P35968)
[10] = biological target: Aurora-B (h) (human) (UniProt Q96GD4)
Sequence of Aurora-B (h) (human) (Q96GD4 whole entry): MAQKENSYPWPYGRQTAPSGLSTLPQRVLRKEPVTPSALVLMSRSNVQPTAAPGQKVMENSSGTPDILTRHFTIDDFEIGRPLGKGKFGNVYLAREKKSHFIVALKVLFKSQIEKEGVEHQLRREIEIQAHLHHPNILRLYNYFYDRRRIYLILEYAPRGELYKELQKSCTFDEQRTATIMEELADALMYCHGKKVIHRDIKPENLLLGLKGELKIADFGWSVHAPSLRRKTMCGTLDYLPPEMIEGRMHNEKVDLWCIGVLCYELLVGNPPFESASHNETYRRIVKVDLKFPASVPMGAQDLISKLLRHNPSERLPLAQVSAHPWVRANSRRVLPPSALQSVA

[11] = biological target: CSK (h) (human) (UniProt P41240)
[12] = biological target: EGFR(L861Q) (h) (human) (UniProt P00533)
[13] = biological target: cKit(V654A) (h) (human) (UniProt P10721)
Sequence of cKit(V654A) (h) (human) (P10721 544-976 V654A): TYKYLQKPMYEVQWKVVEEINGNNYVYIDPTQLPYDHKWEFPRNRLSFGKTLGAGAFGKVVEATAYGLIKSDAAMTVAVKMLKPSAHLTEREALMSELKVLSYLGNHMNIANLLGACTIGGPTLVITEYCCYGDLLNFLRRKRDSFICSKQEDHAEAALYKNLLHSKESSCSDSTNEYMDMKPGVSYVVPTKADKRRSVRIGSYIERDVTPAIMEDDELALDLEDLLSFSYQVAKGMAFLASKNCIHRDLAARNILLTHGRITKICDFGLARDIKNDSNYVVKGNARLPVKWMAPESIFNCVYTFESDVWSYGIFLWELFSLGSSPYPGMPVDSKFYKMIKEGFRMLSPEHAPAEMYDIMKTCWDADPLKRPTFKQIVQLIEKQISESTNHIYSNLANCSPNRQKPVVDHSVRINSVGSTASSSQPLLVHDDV

[14] = biological target: T3, SAPK4 (h) (human) (UniProt O15264)
T3 sequence (looked up): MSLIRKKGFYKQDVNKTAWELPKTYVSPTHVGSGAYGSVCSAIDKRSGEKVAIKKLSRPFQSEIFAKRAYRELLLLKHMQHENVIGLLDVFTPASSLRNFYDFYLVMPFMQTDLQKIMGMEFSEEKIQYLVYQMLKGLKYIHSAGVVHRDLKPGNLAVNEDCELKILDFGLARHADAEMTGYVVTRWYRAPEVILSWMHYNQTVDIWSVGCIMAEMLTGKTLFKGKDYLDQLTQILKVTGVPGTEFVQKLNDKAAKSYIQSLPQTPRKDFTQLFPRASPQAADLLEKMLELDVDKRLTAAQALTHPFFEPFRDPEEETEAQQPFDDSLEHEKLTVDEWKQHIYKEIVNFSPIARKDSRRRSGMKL

[15] = biological target: T4, PrKX (h) (human) (UniProt P51817)
T4 sequence (looked up): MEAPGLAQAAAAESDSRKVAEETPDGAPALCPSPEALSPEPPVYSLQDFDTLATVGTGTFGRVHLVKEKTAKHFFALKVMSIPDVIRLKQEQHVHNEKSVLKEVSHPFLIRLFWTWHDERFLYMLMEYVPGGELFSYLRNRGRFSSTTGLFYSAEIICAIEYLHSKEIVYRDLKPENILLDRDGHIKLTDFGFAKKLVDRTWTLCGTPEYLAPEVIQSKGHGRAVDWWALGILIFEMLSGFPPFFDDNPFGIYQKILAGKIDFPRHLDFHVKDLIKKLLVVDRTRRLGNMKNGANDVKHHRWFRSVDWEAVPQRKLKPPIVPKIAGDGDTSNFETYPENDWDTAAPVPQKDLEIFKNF

MMI-0300 (peptide)
% activity at 100 µM [1]: 33% | % activity at 100 µM [2]: 90% | % activity at 100 µM [3]: 90% | % activity at 100 µM [4]: 77% | % activity at 100 µM [5]: 28% | % activity at 100 µM [6]: 91% | % activity at 100 µM [7]: 147% | % activity at 100 µM [8]: 122% | % activity at 100 µM [9]: 101% | % activity at 100 µM [10]: 128% | % activity at 100 µM [11]: 49% | % activity at 100 µM [12]: 25% | % activity at 100 µM [13]: 134% | % activity at 100 µM [14]: 96% | % activity at 100 µM [15]: 61%
